Hu KLK5 IC50, inhibition of protease activity (Boc-VPR-AMC) (not printed (M by Table 2)), IC50 (M), inhibition of kallikrein protease activity (fluorogenic peptide substrate) and IC50 (read off the curve) data for one substance are collected here from US20230075753A1.

In experiment [1] the target is Active human KLK5 (human) (UniProt Q9Y337). Nature of the experiment: cell-based or functional assay.
The target of experiment [2] is Active cyno KLK5 (cynomolgus monkey).

Several values for one entry are separate records, joined by “and”; a condition that tells them apart may be missing. Equal values may be shown once.

Consider Human LEKTI D5 rabbit Fc fusion protein, for which, in experiment [1], the Hu KLK5 IC50, inhibition of protease activity (Boc-VPR-AMC) (not printed (M by Table 2)) was 1.03e-10 and 7.44e-11; the IC50 (M), inhibition of kallikrein protease activity (fluorogenic peptide substrate) was determined as 1.03e-10 M. The substance also displayed an IC50 (read off the curve) in experiment [2] of 0.7 nM.
